Data taken from article PMC3601010, “The complete N-terminal extension of heparin cofactor II is required for maximal effectiveness as a thrombin exosite 1 ligand” (BMC Biochemistry, 2013).
Entries after “also recorded” stand apart in the source; their conditions may differ. Blank lines part the entries; values can stand above or below the substance they belong to. Ends that are not written are not given here.

Assays:
[1] = target: T1, α-thrombin (Homo sapiens, UniProt P00734); assay: amidolytic activity of thrombin against S2238 after modification; format: biochemical; design: purchased Enzyme Research, South Bend, IN; settings: bFPRck:thrombin molar ratio 10:1, TBS pH 7.4, ten minutes ambient
Protocol: HCII- or hirudin-related peptides in 50 mM sodium phosphate pH 6.5 were combined with 20-fold molar excess sulfosuccinimidyl-6-(biotinamido) hexanoate (sulfo-NHS-LC-biotin, Pierce) at ambient temperature for 30 minutes. Reactions were quenched with excess Tris-Cl pH 7.4 and sulfo-NHS-LC-biotin removed by desalting or dialysis. Biotinylated FPR chloromethylketone (bFPRck; Haematologic Technologies, Essex Junction, VT) was used to modify α-thrombin at a bFPRck: thrombin molar ratio of 10:1 in Tris-buffered saline (TBS, pH 7.4) for ten minutes at ambient temperature. Excess reagent was removed by overnight dialysis versus TBS.

[2] = target: T1, α-thrombin; assay: competition of dermatan sulfate-catalysed thrombin inhibition by plasma-derived HCII (k2app); format: biochemical; design: purchased Enzyme Research, South Bend, IN; settings: 250 μM competitor peptide, 1.4 μM dermatan sulfate
Protocol: (§1) The apparent second-order rate constant (k2app) of α-thrombin inhibition by purified plasma-derived HCII (Affinity Biologicals, Ancaster, ON) was determined under pseudo-first order conditions involving an excess of plasma-derived HCII over α-thrombin using a discontinuous assay as previously described, with or without addition of competitor HCII 1-75, HCII 54-75, or HCII 1-53 at 0.25 mM. Briefly, plasma-derived HCII (140 nM) was incubated with α-thrombin (14 nM) in PPNE buffer (20 mM Na2HPO4, pH 7.4, 100 mM NaCl, 0.1 mM EDTA, 0.1% polyethylene glycol 8000) supplemented with 0.055 mg/mL (2 μM) standard heparin (Hepalean, Organon Teknika Canada, St. Laurent, QC) and 10 μM S2238 (DiaPharma,West Chester OH) or 0.055 mg/mL (1.4 μM) dermatan sulfate (Sigma-Aldrich, St. Louis, MO). Residual protease activity was determined by diluting the reactions 100-fold into 100 μM S2238 and measuring the absorbance at 405 nm for 5 minutes using an EL808 plate reader (BioTek Instruments, Winooski, VT).
(§2) Figure 5 Effects of HCII-derived peptides on the inhibition of thrombin by plasma-derived HCII in the presence of GAGs. […] The competing peptides that were used separately at 250 μM were: HCII 1-75; HCII 54-75; or HCII 1-53. The mean ± the SD of 3 independent experiments is shown.

[3] = tested on: human thrombin; assay: thrombin clotting time in plasma; format: biochemical
Protocol: Thrombin times were determined using Thrombin 10 (freeze-dried human thrombin with calcium [1.5 NIH units/mL] Diagnostica Stago, Asnieres, France) and an STA 4 coagulation analyzer (Diagnostica Stago). Citrated human plasma (25 μL) was combined with 75 μL veronal buffer (7.14 mM sodium acetate trihydrate, 7.4 mM sodium diethyl barbiturate, 131 mM NaCl pH 7.4) containing or lacking HCII- or hirudin-related peptides, and clotting time was determined following the addition of 100 μL Thrombin 10 reagent.
Figure 4 Effects of competitor peptides on thrombin clotting time. […] The mean ± the SD of 3 independent experiments is shown.

[4] = target: T1, α-thrombin; assay: competition of heparin-catalysed thrombin inhibition by plasma-derived HCII (k2app); format: biochemical; design: purchased Enzyme Research, South Bend, IN; settings: 250 μM competitor peptide, 140 nM plasma-derived HCII, 55 μg/mL standard heparin
Protocol: as §1, §2

[5] = target: T2, thrombin (Homo sapiens, UniProt P00734); assay: SPR competition of thrombin binding to chip-immobilized HCII 1-75
T2 construct: purchased Enzyme Research, South Bend, IN; host or cells: HCII 1-75 probe made in house in E. coli TOP10
Protocol: Surface plasmon resonance experiments were carried out using a BIAcore X biosensor instrument (Biacore, Piscataway, NJ) at 25°C. Biotinylated HCII- or hirudin-related peptides were immobilized on streptavidin-coated sensor chips (GE Healthcare) under conditions recommended by the manufacturer. […] A flow rate of 2 μL/minute was employed for immobilization runs, with 0.5 M NaCl employed as a regeneration buffer and HEPES-buffered saline (10 mM HEPES, 150 mM NaCl, 0.005% Tween-20, pH 7.7) otherwise used for binding determinations. Binding of thrombin (0-30 μM) was assessed using 20 μL injection volumes, and flow rates of 20 μL/minute. BIAcore Evaluation 3.2 (BIAcore) software was used to evaluate sensorgrams from each run, using either 1:1 Langmuir binding or steady state analysis. In some experiments various concentrations of HCII- or hirudin-related peptides were combined with 250 nM thrombin or FPR-ck-thrombin immediately prior to being flowed over chip-bound HCII 1-75.
Figure 6 Senorgrams from surface plasmon resonance (SPR) experiments. Biotinylated HCII 1-75 was bound to streptavidin-coated sensor chips and varying concentrations of thrombin were flowed over the chip, generating sensorgrams (e.g. Panel A) of the response in response units (RU) versus the time in seconds. Panel B is a plot of experiment shown in Panel A, combined with two other independent experiments; each point therefore represents the mean mid-plateau response ± the SD of 3 independent experiments. In panels C-F the thrombin concentration was fixed at 250 nM and competitor peptides identified in each panel were combined with thrombin and flowed over the chip. The concentration of competitor peptides in each experiment is shown to the left of the sensorgram.

[6] = tested on: thrombin; settings: ref [21], cited from earlier work
Source text: Although the differences between the encounter complex and the native structure support the allosteric model of activation, they provide no information on the position or role of the first 54 residues of HCII. […] We replicated this experiment and extended it to include all four of the exosite 1 ligand peptides employed in this study, as shown in Figure 4. We used the measurement previously employed to judge the potency of the peptides, the concentration required to double the thrombin clotting time. […] While there are no similar values in the literature available for HCII 1-75 for comparison to our results, ...

[7] = target: HCII; settings: ref [47]; read-out: KD, HCII-dermatan sulfate interaction; cited from earlier work
Source text: (§3) The relative contributions to HCII function of a template mechanism, in which thrombin and HCII become co-localized due to their binding to the same glycosaminoglycan chain, or a conformational change mechanism, in which GAG binding to HCII releases the N-terminal extension of HCII for exosite 1 binding, remain somewhat controversial, as does the degree of cross-talk between thrombin’s exosites and active site.

[8] = target: T2, thrombin; settings: ref [47]; read-out: KD, thrombin binding to dermatan sulfate; cited from earlier work
Source text: as §3

[9] = target: T1, α-thrombin; assay: competition of binding of α-thrombin to HCII 1-75 immobilized on microtiter plate wells; design: purchased Enzyme Research, South Bend, IN; host or cells: HCII 1-75 probe made in house in E. coli TOP10; settings: 5 nM thrombin, 37°C 30 min, anti-thrombin antibody, OD 490 nm; mean of 3 determinations ± SD
Protocol: Purified HCII 1-75 was immobilized onto an Immulon 4 HBX 96 well microtiter plate (Thermo, Milford MA), using a 1 μM solution of HCII 1-75 in PBS at 0.1 mL per well overnight at 4°C. The HCII solution was then removed and the wells blocked with 5% BSA (w/vol) in PBS-T for one hour at ambient temperature. […] Wells were washed and reacted with horseradish peroxidase-conjugated sheep anti-human thrombin antibody (Affinity Biologicals, Ancaster, ON), diluted 1:10,000 in blocking buffer, for one hour at ambient temperature. Following washes with PBS-T, colour was developed using a freshly made solution of 5 mg o-phenylenediamine (Pierce) in 12 mL of 25 mM citric acid, 97 mM Na2HPO4 pH5.0 supplemented with 0.03% (v/vol) hydrogen peroxide for ten minutes prior to stopping the reaction with sulfuric acid. The optical density at 490 nm was then read on an EL808 Plate reader (Biotek Instruments, Winooski, VT). […] The same program was used to calculate IC50s in competitive binding experiments in which HCII-derived or hirudin-derived peptides were used to compete the binding of thrombin to immobilized HCII 1-75.

Substance: Biotinylated FPR chloromethylketone [bFPRck]
amidolytic activity of modified thrombin against S2238 [1]: no detectable amidolytic activity against S2238

Ki, inhibition of thrombin binding to HCII 1-75 (SPR) ([5]; 250 nM thrombin, chip-immobilized HCII 1-75, SPR 25°C, HBS pH 7.7, Ki from IC50 using KD 340 nM, mean of 3 determinations ± SD): No inhibition
Substance: HCII 1-53: Synthetic peptide containing the first 53 residues of human HCII and a nonapeptide N-terminal tag ({Met-Gly-Ser-H2N-H2N-H2N-H2N-H2N-H2N}-GSKGPLDQLEKGGETAQSADPQWEQLNNKNLSMPLLPADFHKENTVTNDWIPE; UniProt P05546 20-72, looked up, fragment)
effect on rate of thrombin inhibition by plasma-derived HCII, dermatan sulfate [2]: no reduction in the apparent rate of inhibition
effect on thrombin-mediated plasma clotting ([3]; plasma clotting assay): no effect; also recorded: no detectable ability to bind thrombin, to delay thrombin-mediated coagulation
effect on rate of thrombin inhibition by plasma-derived HCII, heparin [4]: no effect; also recorded: no detectable ability to bind thrombin, to delay thrombin-mediated coagulation, or to compete for the N-terminal HCII 1-75 extension in native HCII
thrombin binding ([5]; summary statement, discussion/conclusions): no detectable ability to bind thrombin; also recorded: did not bind to thrombin
effect on thrombin binding to HCII 1-75 ([5]; up to 250 μM competitor, 250 nM thrombin, SPR): no effect on thrombin binding to HCII 1-75

Substance: HCII 54-75 peptide: synthetic peptide to HCII residues 54-75 of ref [21] (GEEDDDYLDLEKIFSEDDDYID; not fully specified (N-terminus); UniProt P05546 73-94, looked up, fragment)
fold less potent than sulfo-Hir 54-65 as inhibitor of thrombin-mediated clotting ([6]; recalcified human plasma): approximately 30 fold
inhibition of thrombin activities [6]: inhibition of thrombin-mediated fibrinogen cleavage and clot formation

Substance: dermatan sulfate
Kd [7]: 236000 to 290000 nM
Kd [8]: 2000 to 6000 nM

IC50 [9]: 140 ± 40 nM
Ki ([5]; 250 nM thrombin, chip-immobilized HCII 1-75, SPR 25°C, HBS pH 7.7, Ki from IC50 using KD 340 nM, mean of 3 determinations ± SD, read-out: Ki, inhibition of thrombin binding to HCII 1-75 (SPR)): 54 ± 90 nM
fold more effective competitor of thrombin binding than HCII 1-75 ([5]; SPR competition): 48 fold
Substance: sulfo-Hir 54-65: Synthetic peptide containing the C-terminal 12 residues of hirudin, with Tyr63 sulfated [reference compound]
concentration required to double the thrombin clotting time ([3]; diluted citrated human plasma, Thrombin 10 reagent, mean of 3 determinations ± SD): 0.150 ± 0.02 µM
